The RNAGym collection of RNA variant scans (doi:10.1093/nar/gkz1192)

B1: CPEB3 Ribozyme (parent)
chain: UAACAGGGGGCCACAGCAGAAGCGUUCACGUCGCAGCCCCUGUCAGAUUCUGGUGAAUCUGCGAAUUCUGCUGUAUAUCUC

Variants of: B1
Test: self-cleavage, relative activity (ratio to wild type); higher = more cleavage; in vitro, sequencing
In short: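 After error-prone PCR and barcoding, CPEB3 ribozyme mutant libraries were transcribed with T7 RNA polymerase at 37°C for 5 hours, then given 15 min with DNase I before an EDTA stop, and they cleaved during both steps. Reverse transcription with template switching preceded Illumina sequencing. Relative activity divides a variant's cleaved/total read fraction by the unmutated ribozyme's. At least 5 reads were required per variant, and three batches were averaged.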

In order of falling self-cleavage:
1. A5U U80A  1.32
2. A5U C81G  1.29
3. A5U U43A  1.24
4. A5U U74A  1.24
5. A5U C79U  1.24
6. A5U C81A  1.24
7. A5U C81U  1.17
8. A5U U51G  1.16
9. A5U U78A  1.15
10. A5U G55U  1.15
11. A5U G52U  1.15
12. A5U U72C  1.14
13. A5U U74C  1.14
14. A5U U80G  1.14
15. A5U G53A  1.14
16. A5U U51C  1.13
17. A5U U76C  1.13
18. A5U U76A  1.12
19. A5U U80C  1.12
20. A5U U54A  1.1
21. A5U G52A  1.1
22. A5U U54C  1.09
23. A5U G63A  1.06
24. A5U U26A  1.05
25. A5U G16A  1.05
26. A5U C68U  0.99
27. A5U U41C  0.98
28. A5U U51A  0.96
29. A5U U72G  0.94
30. A5U U66G  0.93
31. A5U U78C  0.93
32. A5U U31C  0.92
33. G6A G73U  0.89
34. G6A A35G  0.86
35. A5U U69A  0.81
36. G6U U78A  0.79
37. A5U C71U  0.79
38. A5U U60A  0.76
39. A5U U43C  0.76
40. A5U U69C  0.74
41. G6A C81U  0.73
42. A5U U26C  0.72
43. A5U G19A  0.72
44. A5U G61U  0.72
45. A5U U72A  0.71
46. G6C U74C  0.67
47. A5U G16U  0.66
48. A5U U48C  0.66
49. A5U U67A  0.63
50. A5U U58C  0.61
51. G6C G53A  0.59
52. G6A C12U  0.59
53. A5U U60C  0.58
54. G6A C14U  0.57
55. G6U G73A  0.57
56. G6C A21G  0.56
57. G6A C79U  0.55
58. A5U U49C  0.55
59. G6A U74C  0.54
60. G6A C17A  0.54
61. A5U U67G  0.54
62. A5U U58A  0.53
63. G6A U80A  0.53
64. G6A U54C  0.52
65. A5U G6A  0.52
66. G6C U54C  0.52
67. G7A A56U  0.52
68. G6A A75U  0.51
69. A5U G10C  0.5
70. A5U U31A  0.5
71. G6C A57G  0.5
72. G6C U25A  0.5
73. G6U U60A  0.49
74. G6C U41C  0.49
75. G6A A21G  0.49
76. G6A U43A  0.49
77. G6A U51C  0.49
78. G6A C39A  0.49
79. A5U C71A  0.48
80. G6C U78C  0.48
81. G6C G19A  0.48
82. G6A A20G  0.48
83. A5U G7C  0.48
84. G6C U48C  0.47
85. G6U G52A  0.47
86. G6A U25G  0.47
87. G6C U26A  0.47
88. G6A A47G  0.46
89. G6A C44U  0.46
90. G6U C79A  0.46
91. G7A A35G  0.46
92. A5U U66A  0.46
93. G6C A65G  0.46
94. A5U U66C  0.45
95. G6A A77G  0.45
96. G6C U31C  0.45
97. A5U G9A  0.45
98. G6A U80C  0.45
99. G6U U80A  0.44
100. G6A A77C  0.44
101. G6A A18C  0.44
102. G6C A20G  0.44
103. A5U U49A  0.44
104. G6A G53C  0.43
105. A5U G24U  0.43
106. G6U A57G  0.43
107. G6C C38A  0.43
108. G6A C62G  0.42
109. G6A G19C  0.42
110. G6A A15C  0.42
111. G6U A35G  0.41
112. G6U A56G  0.41
113. G6U A15U  0.41
114. G6A G10A  0.41
115. A5U U25C  0.41
116. G6A  0.4
117. A5U G24A  0.4
118. G6A U67A  0.4
119. G6A A13C  0.4
120. G6U U74G  0.4
121. G6A U72C  0.4
122. G6U G9A  0.4
123. G6A G55U  0.4
124. G6A A28U  0.4
125. A5U G30C  0.4
126. G6A C12A  0.39
127. G6C A21U  0.39
128. A5U G36A  0.39
129. G6U U26C  0.38
130. G6U U49A  0.38
131. G6C U51A  0.38
132. G6A C79A  0.38
133. G6U A28G  0.38
134. G6A A45U  0.38
135. G6U U25C  0.37
136. G6A U51A  0.37
137. G6U U72C  0.37
138. G6U A35U  0.36
139. G6C  0.36
140. A5U G24C  0.36
141. G6U U51C  0.36
142. A5U G46A  0.36
143. G7A C29A  0.36
144. G6U A47G  0.36
145. G6A A15G  0.36
146. G6U U41A  0.35
147. G6U  0.35
148. G6A C23G  0.35
149. G6A A13G  0.35
150. A5U G7U  0.35
151. G6A A57G  0.34
152. G6U A20U  0.34
153. G6A G63A  0.34
154. G6A G53A  0.34
155. G6A A77U  0.34
156. G6U G10A  0.34
157. G6A G24A  0.34
158. G6A U31C  0.34
159. A5U G9U  0.34
160. G6A G61A  0.34
161. G6U G7A  0.33
162. G6A C40U  0.33
163. G7A A21G  0.33
164. A5U U41A  0.33
165. G6C C27U  0.33
166. G6A U60A  0.33
167. G6A A47U  0.32
168. G6A U69A  0.32
169. G6U U43C  0.32
170. G6A U67C  0.32
171. G6C A45U  0.32
172. G6U U76A  0.32
173. G6U A64G  0.32
174. G6A G46U  0.32
175. G6A U41C  0.31
176. G6A A21U  0.31
177. G7A C14A  0.31
178. G6A A18G  0.31
179. G6C G42A  0.31
180. G6A A35C  0.3
181. G6C U67C  0.3
182. G7A A75G  0.3
183. G6A C38U  0.3
184. G7A A13G  0.3
185. G6C A35U  0.3
186. G6A A57U  0.29
187. G6U A21G  0.29
188. A5U C68A  0.29
189. G6A U66C  0.29
190. G6A G33A  0.29
191. G6A G16A  0.29
192. A5U U67C  0.29
193. G6A A28G  0.29
194. G6A U58G  0.29
195. A5U G22A  0.28
196. G6A A13U  0.28
197. G7A A64G  0.28
198. G6A A56G  0.28
199. G6A A75G  0.27
200. G6A U54A  0.27
201. A5U G33A  0.27
202. G6A U69G  0.27
203. G7A A20C  0.27
204. G6A A64G  0.27
205. G6A U76C  0.27
206. G6A U72G  0.27
207. G6A U25C  0.27
208. G6A U60C  0.27
209. G6A U58A  0.27
210. A5U G30A  0.27
211. G6U A20G  0.26
212. G6A A35U  0.26
213. G6A U41A  0.26
214. G7A A20G  0.26
215. G6A G19A  0.26
216. A5U U25A  0.26
217. G7A A77U  0.26
218. A5U G30U  0.26
219. G6A C32A  0.26
220. G7A A18G  0.25
221. G7A  0.25
222. G6A C62U  0.25
223. G6U C62G  0.25
224. G6A G9A  0.25
225. G6U C29U  0.25
226. G6U C23U  0.25
227. G6U U60C  0.24
228. G6A U78C  0.24
229. G6U G8A  0.23
230. G7A A15U  0.23
231. G6A G10C  0.23
232. G6A A18U  0.23
233. G6A G24U  0.23
234. G6U A65U  0.23
235. G6A G33U  0.22
236. G6U A56U  0.22
237. G6U U69C  0.22
238. G6U U49C  0.22
239. G6U U31C  0.22
240. G6A C17U  0.22
241. A5U G7A  0.22
242. G6A A65U  0.22
243. G6C C71A  0.21
244. G6C U69C  0.21
245. G6A U31A  0.21
246. G6C U58A  0.21
247. G6A U26C  0.2
248. G6A A64U  0.2
249. G6C G19U  0.2
250. G6U U66C  0.2
251. G6A A56U  0.2
252. G6A U72A  0.2
253. G7A A28C  0.2
254. G6A C37U  0.2
255. G6C C62U  0.2
256. G6A U26A  0.19
257. G6A U54G  0.19
258. G6A G30A  0.19
259. G6U A15C  0.19
260. G7A A35U  0.19
261. G6U C12U  0.19
262. G6U A45U  0.19
263. G6A G36A  0.19
264. G6U G16C  0.19
265. G6A U43C  0.19
266. G6C U72A  0.18
267. G6U A13U  0.18
268. G6A U41G  0.18
269. G6A U48C  0.18
270. G7A A64U  0.18
271. G6A A15U  0.18
272. G6U A21C  0.17
273. G6U U31A  0.17
274. G6U A47U  0.17
275. G6U U58C  0.16
276. A5U G33C  0.16
277. G6U C11A  0.16
278. G6A C62A  0.16
279. G6U A77U  0.16
280. G6C U31A  0.16
281. G6U U48A  0.16
282. G7A A28G  0.16
283. G7A A45U  0.16
284. G7A A45G  0.16
285. G6A A65G  0.16
286. G6U C71A  0.16
287. G6A G42A  0.15
288. G6A U69C  0.15
289. G6U U76C  0.15
290. G6A U49C  0.15
291. G6A C59A  0.15
292. G6A C34U  0.15
293. G6A A28C  0.15
294. G7A A56G  0.15
295. G6U A18C  0.14
296. G6A U76G  0.14
297. G6A A45G  0.14
298. G6A U58C  0.14
299. G6U U26A  0.13
300. G6U U66A  0.13
301. G6U U48C  0.13
302. G6A C23U  0.12
303. A5U G10A  0.12
304. G7A A57G  0.12
305. G6U A18U  0.12
306. A5U G8A  0.12
307. G7A A65G  0.11
308. G6U A45G  0.11
309. G7A C37A  0.11
310. G6A U78A  0.11
311. G6U U67C  0.11
312. G6A C23A  0.1
313. G6A C38A  0.1
314. A5U G8C  0.1
315. G6U A75G  0.09
316. G7A A47G  0.09
317. G6A G7A  0.09
318. G6U U80C  0.09
319. G7A C32U  0.09
320. G7A A15G  0.09
321. G6U C59U  0.09
322. G6U U67A  0.09
323. G6A C29U  0.08
324. G6A U49A  0.08
325. G6U C32U  0.08
326. G6A G7U  0.07
327. G7A C11G  0.07
328. G6A G9C  0.07
329. G6A A20U  0.07
330. G6C A18U  0.07
331. G6U A64U  0.07
332. G7A C12U  0.07
333. G6A G19U  0.06
334. G6A C29A  0.05
